Results reported in the nanobody polyreactivity screen of Harvey et al. (2022).

Assay: yeast display, Sf9 membrane polyspecificity reagent, FACS + sequencing; frameworks hold sequencing errors
Method in brief: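 Galactose-induced (36–48 hours) yeast carrying a synthetic nanobody display library were exposed to 10% biotinylated, detergent-solubilized Sf9 membrane reagent at 4 °C for 1 hour. FACS followed streptavidin microbead enrichment, using low and high (top ~1%) gates for expression (anti-HA) and reagent binding (streptavidin). Colony PCR, MiSeq 2 × 250 sequencing and CDR-length filtering followed. Labels for polyreactivity reflect the gate of origin.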

Sequence	polyreactivity (PSR sort gate)
QVQLVESGGGLVQAGGSLRLTCAASGRNFDYNARGWYRQAPGKEREFVAPISGRGGSTYYADSVKGRFTISRDNAKNRVYLQMNSLKPEDTAVYYCAADWRYRYSGRYDYWGQGTQVTVSS	high polyreactivity
QVQLVESGGGLVQAGGSLRLSCAASAIIFRFYAMGWYRQAPGKERELVPAISSGGSTYYADSVKGRFTISRDNAKNTVYLQMNSLKPEDTAVYYCNARVRYKRTGRYGYWGQGTQVTVSS	high polyreactivity
LVQLVESGGGLVQAGGSLRLSCAASGNIFVSYAMGWYRQAPGKERELVAAISKSGGSTYYADSVKGRFTISRDNAKNTVYLQMNSLKPEDTAVYDCAARWYNRVKYQKFNYWGQGTQVTVSS	high polyreactivity
QGQLVESGGGLVQAGGSLRLTCAASGLTFRRYTMGSYRQAPGNERELVAPISGSGGSTYYADSVKGRFTISRDSAKNTVYFQMNSLKPEDTAVSYCNAPYLHYVIVFTDYSQRYDYWGQGTQVTVSS	high polyreactivity
QVQLVESGGGLVQAGGSLRLSCAASGFTFYYYAMGWYRQAPGKERELVAGISKSGGITYYADSVKGRFTISLDNAKNTVYLQMNSLKPEDTAVYYCAAAEWYQFFIYRYTYEYWGQGTQVTVSS	low polyreactivity
QFQLVESGGGLVQAGCSLRLSCAASGGTFGLYAMGWYRQAPGKERELVAANTWSDSSTYYADSVKGRFTISRDNAKNTVYLQMNSLKPEDNAVYYCAADYGDADTWWPSAEYHSGRDYWGQGTQVTVSS	low polyreactivity
QVQLVESGGGLVQAGGSLRLSCAASGFIFDRYDMGWYRQAPGKERELVAAISYSGGSTYYADSVKGRFSISRDNAKNTVYFQMNSLKPEDTAVYYCATRVGYFYYEYSYDYWGQGTQVTVSS	low polyreactivity
QVQLVESGGGLVQAGGSLRLSCAASGSIFGGYAMGWYRPAPGKERELVAAIDESGGSTYYADSVKGRFTISRDNAKNTVYLQMNSLKPEDTAVYYCLVFRDDSGPGDYYYWGQGTQVTVSS	low polyreactivity
QVQLVESGGGLVQAGGSLRLSCAASGFIFSGNAMGWYRQAPGKERELVAAITRGGITYYADSVKGRFTISRDNAKNTVYLQMNSLKPEDTAVYYCNALGFGSNYDYWGQGTQVTVSS	high polyreactivity
QVQLVESGGGLVQAGGSLRLSCAASGRTISRNTMGWYRQAPGKERELVAGITYGGDRTYYADSVKGRFTISRDNAKNTVYLQMNSLKPEDTAVYYCAAPWYWKGLRDYWGQGTQVNVSS	low polyreactivity
QVQLVESGGGLVQAGGSLRLSCAASGRTFVSNAMGWYRQAPGKERELVARITGSGGTTYYADSVKGRFTISRDNAKNTVYLQMNSLKPEDTAVYYCNADVFRKFGSPSAYKSHRYDYWGQGTQVTVSS	low polyreactivity
QVQLVESGGGLVQAGGSLRLSCAASGFTFKGNAMGWYRQAPGKESELVAGISRSGRTYYADSVKGRFTISRDNAKNSVYLQMNSLKPEDTAVYYCNARNQGWASLPTMGYWGQGTQVTVSS	high polyreactivity
QVQLLESGGGLVQAGGSLRLSCAASGSIFTEYAMGWYRQAPGKERELVAAITYSGGSTYYADSVKGRFTISRDNAKNTVYLQMHSLKPDDTAVYYCNADYRIYVAYYYWGQGTQVTVSS	low polyreactivity
QVQLVESGGGLVQAGGSLRLSCAASGRIIGLYARGWYRQAPGKERELVAAITWRGGRTYYADSVKGRFTISRDNAKNTVYVQMNRLSPEDTAVYYCAADLSNSLDYWGQGSQVTVSS	high polyreactivity
QVQLVESGGGLVQAGGSLRLSCAASGITFRTNAMGSSRQAPGKERELVAAITTNGGNTYYADSVKGRFTISRDNAKNTVYLQMNSLKPEDTAVYYCNTATYVDSFPDPGDHWGQGTQVTVSS	low polyreactivity
QVQLVESGGGLVQAGGSLRLSCAASGFTFWKYAMGWYRQAPGKERELVAAISVSGGRTYYADSVKGRFTISRDNAKNTVYLQMNSLKPEDTAVYYCNATPWRPYVGGEYWGQGTQVTVSS	high polyreactivity
QVQLVESGGGLVQAGGSLRLSCAASGRIFPYYAMGWYRQAPGKERELVAAINWRGTRTYADSVKGRFTLSRDNAKNTVYLQMNSLKPEDTEVYYCAARTLYFSKYDYWGQGTQVTVSS	high polyreactivity
QVQLVESGGGLVQAGGSLRLSCAASGRTFYDYAMGWYRQAPGKERELVAASSRRAGSTYYADSVKGRFTISRDNAKNTVFLEMNSLKPEDTSVYYCAAAYYRRWWRGHHYAFDYWGQGSQVTVSS	high polyreactivity
QVQLVESGGGLVQAGGSLRLSCAASGSIFEGNSMGWYRQAPGKERELVAAISRRGGRTYYADSVKGRFTISRDNAKKTVFLQMNSLKPEDTAVYYCNALYFRVGRYQTYSDKFDYWGQGTQVTVSS	high polyreactivity
QVQLVESGGGLVQAGGSLRLSCAASGITFEDYAMGWYRQAPGKERELVAAITSNGGSTYYADSVKGRFTISRDNAKNTVYLQMNSLKPEDTAVYYCAATKYFSYYGRVSWADGGYWGQGTQVTVSS	low polyreactivity

Sequence	polyreactivity (PSR sort gate)
QVQLVESGGGLVQAGGSLRLSCAASGRIFYYNDMGWYRQAPGKERELVAAITWTDDGTYYADSVKGRFTISRDNAKNTVFLQMNSLKPEDTAVYYCAAESFYGFEYWGQGTQVTVSS	low polyreactivity
QVQLVESGGGLVLAGGSLRLSCAASGRTFGWNAMGWYRQAPGTERELVAAISWSGGSTSYADSVKARFTISRDNAKNTVYLQMNSLKPEDTAVYYCGKLDSYGMYYWGQGTQVTVSS	low polyreactivity
QVQLVESGGGLVQAGGSLRLSCAASGSTLTYYTMGWYRQAPGKERELVARISWSSGRTYYADSVKGRFTISRDNAKNTVYLQMNSLKPEDTAVYYCNADRTYYRGLDYWGQGTQVTVSS	high polyreactivity
QVQLVESGGGLVQAGGSLSLSCAASGRIFTRYAMGWYRQAPGKERELVAAISYGGGGTYYADSVKGRFTISRDNAKNTVYLQMNSLKPEDTAVYYCATDDPLSQINEHGMDYWGQGTQVTVSS	low polyreactivity
QVQLVESGGGLVQAGGSLRLSCAASGRIFRYYAMGWYRQATGKERELVATITASSGSTYYADSVKGRFTISRDNAKNTVYLQMNSLKPEDSAVYYCAAGFVYRPGSFIRFDYWGQGTQVTVSS	high polyreactivity
QVQLVESGGGLVQAGGSLRLSCAASGFIFVNYMGWYRQAPGKERELVAAISRGGSTNYADSVKGRFTISRDTAKNTVYLQMNSLKPEDTAVYYCAAETWYSGYTYDSCGQGTQVTVSS	low polyreactivity
QVQLVESGGGLVQAGGSLRLSCAASGITFTDYDMGWYRQAPGKERELVAAISNGGGSTYYADSVKGRFTISRDNAKNTVYLQMYSMKPEDTAVYYCAAERVPSWWVEWGVAQWDDYWGQGTQVTVSS	low polyreactivity
QVQLVESGGGLVQAGGSLRLSCAASGFIFQGNAKGWYRQAPGKERELVAAITRGGGRTYYADSVKGRFTISRDNSKNTVYLQMNSLKPEDSAVNYCNAVGRSKYDYWGQGTQVTVSW	high polyreactivity
QVQLVESGGGLVQAGGSLRLSCAASGFTFKQYGMGWYRQAPGKERELVASISYRGGSTHYADSVKGRFTISRDNAKNTVYLQMNSLKPEDTAVYYCAARVTSRTSIKGDYWGQGTQVTVSS	low polyreactivity
QVQLVESGGGLVQAGGSLRLSCAASGRIFGGYTMGWYRQAPGKEREFVATISRSSGSTYYADSVKGRFTISRDNAKNTVYLQMNSLKPEDTAVYYCAAVYLYATGYDYWGQGTQVTVSS	high polyreactivity
QVQLVESGGGLVQAGGSLRLSCAASGRTFAWYTMGWYRQAPGKERELVAAISGSGGSTYYADSVKGRFTISRDNAKNTVYLQMNSLKPEDTAVYYCSRRVDSYYGHTRYYYWGQGTQVTVSS	high polyreactivity
QVQLVESGGGLVQAGGSLRLSCAASGYIFGAYAMGWYRQAPGKERELVAGITASGDSTYYADSVKGRFTISRDNAKNTVYLQMNSLKPEDTAVYYCNAQPDIGLYDRQWKEPYEYWGQGTQVTVSS	low polyreactivity
QFQLVESVGGLVQAGGSLRLSCAATGRTSYVYLMVSYRAATGTEMELVAAITGSGGSTYYADSVKGRFTISRDNEKNNVYLQLNSLKPEDTAVYYCAKAYYSYEVYLGLSYVRRYVYWGQGTQVTVSS	low polyreactivity
QVQLVASGGGLVQAGGSLRLSCAASGRNFRSYVMGWYRQAPGKERDLVATITRSGGGTTYADSVKGRFTISRDNAKNTVYLHMKSLKAEDTAVYYCNAERRYSWYSQGDYWGQGTQVTVSS	high polyreactivity
QVQLVESGGGLVQAGGSLRLSCAASRFYTMGWYRQAPGKERELVAAISWSGGDTYYADSVKGRFTISRDNAKNTVYLQMNSLKPVDTAVYYRAKKTIGSYVHEPYYYWGQGTQVTVSS	low polyreactivity
QVPLVESGGGLVQAGGILRLSSAASGFIFTYYAMGWYRQAPGKERELVAAISASGGSTYYADSVKGRFTISRDYAKNTVYIQLYSLEPEDSSVYYCNKLYQQRAWETFSWGGYWGQGTQVTVSS	high polyreactivity
QVQLVESGGGLVQAGGSLRLSCAASGITFARYAMGWYRQAPGKERELVAAISQSGGSTYYADSVKGRFTISRDNAKNTVYLQMNSLKPEDTAVYYCNAYYVNYVSNYEYWGQGTQVTVSS	high polyreactivity
QVQLVESGGGLVQAGGSLRLSCAASGSTFSTNFMGWYRQAPGKERELVAAISTIGGSTYADSVKGRFTISRDNAKNTVYLQMNSLKPEDTAVYYCAAVFRVRRKTYGYWGQGTQVTVSS	high polyreactivity
QVQLVESGGGLVQAGGSLRLSCAASGNTFSYYAMGRYRQSPGKEREFVAAIRKSGASTYYADTVKGRFTISRDNAKNTVYLQINSLKPEDTALYYCAADGQVSYALGFDYWGQGTQVTVSS	high polyreactivity
QVQLVESGGGLVQAGGSLRLSCAASGIIFPYNAMGWYTQAPGKERELVAAITGGGSTYYADSVKGRFTISRDNAKNTVYLQMNSLKPEDTAVYYCAADRSGPGYDYWGQGTQVTVSS	low polyreactivity
